{"source": "patent US7645449B2", "about": "“Sensitizing cells for apoptosis by selectively blocking cytokines” (priority 2003, dated 2010)", "molecules": {"B1": {"name": "IL-4: human recombinant IL-4 (protein, UniProt P05112 25-153, looked up)", "Interleukin-4": "HKCDITLQEIIKTLNSLTEQKTLCTELTVTDIFAASKNTTEKETFCRAATVLRQFYSHHEKDTRCLGATAQQFHRHKQLIRFLKRLDRNLWGLAGLNSCPVKEANQSTLENFLERLKTIMREKYSKCSS"}}, "format_in_all_cases": "cell-based, human", "key": {"[1]": {"tested_on": "Bcl-XL and cFlip/FLAME-1 in LNCap prostate cancer cells", "experiment": "Immunoblot of Bcl-XL and cFlip/FLAME-1 in LNCaP cells", "conditions": "following IL-4 treatment", "protocol": "(§1) The observation that prostate and breast tumor cells treated with IL-4 display a reduced sensitivity to death induced by CD95 and chemotherapeutic drugs led us to investigate whether this cytokine would influence the expression of apoptosis regulatory genes. […] Therefore, IL-4-mediated increased survival in bladder, prostate and breast cancer cells is associated with upregulation of anti-apoptotic proteins.\n(§2) Cell pellets were washed twice with cold PBS and lysed on ice for 30 minutes with 1% NP40 lysis buffer (20 mM Tris-HCl pH 7.2, 200 mM NaCl, 1% NP40) in the presence of 1 mM phenylmethylsulphonyl fluoride (PMSF) and 2 μg/ml each of aprotinin, leupeptin and pepstatin. Cell debris was removed by centrifugation at 13,000 rpm for 10 minutes at 4° C. Lysate concentration was determined using the Bio-Rad protein assay (Bio-Rad Laboratories, Richmond, Calif.). Aliquots of cell extracts containing 30 μg of total protein were resolved on 10% or 12% SDS-PAGE and transferred to a Hybond-C extra nitrocellulose membrane (Amersham Pharmacia Biotech, Piscataway, N.J.). […]"}, "[2]": {"tested_on": "RT112 bladder carcinoma cells", "experiment": "MTS viability of RT112 cells: chemotherapy- and anti-CD95-induced apoptosis", "excerpt": "Anticancer treatment using cytotoxic drugs mediates cell death by activating the intracellular apoptotic program. To determine whether IL-4 was able to inhibit apoptosis induced by chemotherapeutic drugs, bladder tumor cells (RT112) were pretreated for two days with different concentrations of IL-4 and subsequently exposed to camptothecin or etoposide.\nHuman LNCAP prostate cancer cell line and human MDA-MB-231 breast cancer cell line were obtained from the American Type Culture Collection (ATCC, Manassas, Va.). Human RT112 bladder carcinoma cell line was kindly provided by Dr. M. Cippitelli (Regina Elena Cancer Institute, Rome, Italy). Cells were grown in RPMI 1640 (Life Technologies Inc., Grand Island, N.Y.) containing 10% heat inactivated fetal bovine serum supplemented with L-Glutamine 2 mM and 100 units/ml Penicillin-Streptomycin. Cells were kept in 5% CO2 atmosphere and routinely passaged when 80-85% confluent. […] Camptothecin, cisplatin, daunorubicine, etoposide and vincristine were purchased from Sigma-Aldrich Inc. (Sain Louis, Mo.) and resuspended in DMSO (cisplatin, camptothecin and etoposide) or in H2O (daunorubicine and vincristine). Anti-CD95 agonistic antibody (clone CH11) was purchased from Upstate Biotechnology (Lake Placid, N.Y.). Monoclonal antibody anti-Bcl-XL (H5, mouse) was from Santa Cruz (Santa Cruz, Calif.), antibody anti-cFlip/FLAME-1 (NF6, mouse) was kindly provided by Dr. P.H. Krammer (German Cancer Reseach Center, Heidelberg, Germany). Antibody anti β-actin (goat) was purchased from Oncogene (Boston, Mass.):\nCell viability was determined using the CellTiter 96® AQueous One Solution Cell Proliferation Assay (Promega, Madison, Wis.), according to the manufacturer's instructions. The assay is based on reduction of 3-(4,5-dimethylthiazol-2-yl)-5-(3-carboxymethoxyphenyl)-2-(4-sulfophenyl)-2H-tetrazolium, inner salt (MTS) to a colored formazan product that is measured spectrophotometrically. Cells were seeded in 96-well tissue culture plates and incubated at 37° C. in a 5% CO2 incubator overnight. […] After two days cells were treated for 10 hours with chemotherapeutic drugs or anti-CD95, then 20 μl of MTS were added to each well. After 3 hours of incubation at 37° C. with the MTS reagent, the plates were read on a Multilabel Counter (Victor2, Wallac, Perkin-Ehmer Inc., Norwalk, Conn.) and dye absorbance was measured at 490 nm.\nThe percentage of apoptotic cells was derived from the percentage of viable cells that was directly calculated from the values of the MTS assay. The percentage of protection from apoptosis was determined as: % protection=100%−X\nX was calculated with the formule: (C1−C2):100=(S1−S2):X where:\nC1 is the viability of untreated control cells, C2 is the viability of control cells treated with the apoptotic stimulus, S1 and S2 are the viability of cells preincubated with cytoldnes or transduced with anti-apoptotic genes, untreated (S1) or treated (S2) with the apoptotic stimuli.\n(A) Percentage of viable RT112 bladder carcinoma cells pre-treated for two days with increasing doses of IL-4 (5, 10, 20, 50 and 100 ng/ml) which were maintained also during incubation with chemotherapeutic drugs and exposed to 50 ng/ml camptothecin of 7 μM etoposide. […] Cell viability was determined after 24 hours using the MTS assay as described in Materials and Methods and the percentage of protection from cell death was calculated as described in Materials and Methods. The results shown are the mean ±s.d. of four independent experiments.\nWhen the cytokine is removed by washing the percentage of protection is downmodulated.\n(E) IL-4 prevents anti CD95-induced apoptosis. […] Successively, cells were incubated with 30 ng/ml anti-CD95 agonistic antibody in standard medium, Control cells (−) were stimulated with anti-CD95 in the absence of cytokine pre-treatment. The results shown are the mean ±s.d. of four independent experiments."}, "[3]": {"tested_on": "cFlip/FLAME-1 in MDA-MB-231 cells", "experiment": "Immunoblot of Bcl-XL and cFlip/FLAME-1 in MDA-MB-231 cells", "conditions": "following IL-4 treatment", "protocol": "as §1, §2"}}}
{"molecule": "B1", "values": [{"measurement": "levels of Bcl-XL and cFlip/FLAME-1 in LNCap cells", "setting": "[1]", "result": "considerably upregulated"}, {"measurement": "protection from chemotherapy-induced apoptosis at 20 ng/ml", "setting": "[2]; 20 ng/ml IL-4 for two days, camptothecin or etoposide, viability after 24 hours", "result": "able to protect cells from chemotherapy-induced apoptosis"}, {"measurement": "time course of protection from etoposide-induced cell death", "setting": "[2]; 7 μM etoposide, IL-4 maintained in the culture medium", "result": "protected from etoposide-induced cell death from day 2 to day 4"}, {"measurement": "protective effect after shorter pretreatment", "setting": "[2]; 24 hours of IL-4 pretreatment", "result": "already consistent"}, {"measurement": "protection from chemotherapy-induced apoptosis at higher concentrations", "setting": "[2]; IL-4 higher than 20 ng/ml (50, 100 ng/ml)", "result": "protective effect is maintained"}, {"measurement": "protection of RT112 cells from drug-induced death", "setting": "[2]; pretreated two days with IL-4, then camptothecin or etoposide", "result": "significantly protected from drug-induced death"}, {"measurement": "CD95-induced apoptosis in bladder cancer cells", "setting": "[2]; two days IL-4 pretreatment, 30 ng/ml anti-CD95 agonistic antibody", "result": "significantly inhibit CD95-induced apoptosis"}, {"measurement": "cFlip/FLAME-1 level in MDA-MB-231 cells", "setting": "[3]", "result": "only a modest increase"}]}
